Measurements as given in patent publication US12042530B2, “Target peptides for immunotherapy and diagnostics” (University of Virginia Patent Foundation, priority 2012, dated 2024).
Non-standard residues stand in square brackets, D forms with d. No end group written: not given here. pT = C[C@@H](OP(=O)(O)O)[C@H](N)C(=O)O; pS = N[C@@H](COP(=O)(O)O)C(=O)O

Experiments:
HLA-B*0702 = biological target: T1, HLA-B*0702 (Homo sapiens, UniProt P01889); assay: Phosphopeptides presented in association with class I molecules (HLA-B*0702) on cancer cells: melanoma and/or leukemia; parameters: key: Melanoma (M); Leukemia (L); L/M: Melanoma (M) and/or Leukemia (L); conditions: cancer type on which the HLA-B*0702 phosphopeptide is presented
T1 construct: endogenous in cells; host or cells: melanoma and/or leukemia cells

[1] = biological target: T2, HLA-B*0702 (HLA-B7) peptide complexes (Homo sapiens, UniProt P01889); assay: HLA-B*0702 phosphopeptides associated with leukemia samples (isolation of HLA-associated peptides); conditions: for Copies/cell class, ALL1: acute lymphoblastic leukemia sample ALL1; for Copies/cell class, HCL1: hairy cell leukemia sample HCL1; for Copies/cell class, B Cell: healthy B cells; for Copies/cell class, T Cell: healthy T cells; for Copies/cell class, BM: healthy bone marrow
T2 construct: endogenous in cells; host or cells: JY B-lymphoblastoid line; primary ALL, CLL, HCL, AML samples; bone marrow; healthy B and T cells
Description: To identify naturally processed tumor-associated phosphopeptides, HLA-A*0201 (HLA-A2) and HLA-B*0702 (HLA-B7) peptide complexes from four (4) chronic lymphocytic leukemia (CLL) tumor samples, a mantle cell lymphoma sample (MCL), one acute lymphoblastic leukemia (ALL), and an acute myeloid leukemia (AML) sample, in addition to healthy splenic T and B-cells and the cultured lymphoblastoid cell line JY were isolated. These efforts yielded 10 HLA-A2-restricted and 86 HLA-B7-restricted phosphopeptide antigens (see Tables 6 and 7).
All cell lines were grown at 37° C. with 5% CO2 in growth medium consisting of RPMI 1640 supplemented with 10% FCS and two mM L-glutamine. Blood or leukapheresis samples were taken from patients with high-burden leukemia in heparin. Tumor cells were recovered by layering the blood over density gradient (Ficoll) and collecting the tumor layer following centrifugation. The tumor was washed in tris-buffered saline (TBS). The purity of the tumor was assessed using flow cytometry and was >98% pure in all cases. For healthy T and B-cell populations, a normal spleen sample processed and tonsil sample was collected and lymphocytes released through mechanical disruption. Mononuclear cells were isolated using a density gradient and 10^9 T cells isolated using anti-CD19 or anti-CD3 microbeads (Miltenyi Biotec Inc., Auburn, California, United States of America) with purity >98% were obtained. Bone marrow sample was obtained from an elective orthopedic procedure and red cell-depleted using hypotonic lysis. This sample was not processed further.
Class I MHC molecules were immunoaffinity purified from the JY cell line or from primary tumor samples, and their associated peptides were extracted as previously described in Zarling et al., 2006. Approximately 1.2-14×10^9 cells were lysed in a solution containing 20 mM Tris-HCl (pH 8.0), 150 mM NaCl, 1% CHAPS, one mM PMSF, five μg/mL aprotinin, 10 μg/mL leupeptin, 10 μg/mL pepstatin A, 1 μg/ml calyculin A, and phosphatase inhibitor (cocktails I and II; Sigma-Aldrich). The mixture was subjected to centrifugation and the resulting supernatant was passed over protein A sepharose pre-loaded with the HLA-A2-specific antibody BB7.2 or HLA-B7-specific antibody MEL Peptides were eluted from the purified class I MHC molecules with 10% acetic acid.

L/M (HLA-B*0702)	Copies/cell class, AML1 [1]	Copies/cell class, CLL2 [1]	Copies/cell class, CLL4 [1]	Copies/cell class, JY [1]	Copies/cell class, ALL1 [1]	Copies/cell class, HCL1 [1]	Copies/cell class, B Cell [1]	Copies/cell class, T Cell [1]	Copies/cell class, BM [1]	Substance
L/M	4 (4 indicates >25 copies per cell)	4 (4 indicates >25 copies per cell)	4 (4 indicates >25 copies per cell)	4 (4 indicates >25 copies per cell)	2 (2 indicates 1-5 copies/cell)	4 (4 indicates >25 copies per cell)	–	–	–	295 (KPR[pS]PVVEL; listed as Homo sapiens) [compound 295]
L	–	1 (1 indicates <1 copy/cell)	–	4 (4 indicates >25 copies per cell)	2 (2 indicates 1-5 copies/cell)	2 (2 indicates 1-5 copies/cell)	2 (2 indicates 1-5 copies/cell)	3 (3 indicates 6-25 copies per cell)	–	296 (KPY[pS]PLASL; listed as Homo sapiens) [compound 296]
L	1 (1 indicates <1 copy/cell)	–	–	–	–	–	–	–	–	297 (LPA[pS]PRARL; listed as Homo sapiens) [compound 297]
L	–	–	–	–	4 (4 indicates >25 copies per cell)	–	1 (1 indicates <1 copy/cell)	–	–	305 (RAP[pS]PSSRM; listed as Homo sapiens) [compound 305]
L	–	–	–	–	1 (1 indicates <1 copy/cell)	–	–	–	–	310 (RPA[pT]GGPGVA; listed as Homo sapiens) [compound 310]
L	2 (2 indicates 1-5 copies/cell)	1 (1 indicates <1 copy/cell)	–	4 (4 indicates >25 copies per cell)	2 (2 indicates 1-5 copies/cell)	1 (1 indicates <1 copy/cell)	–	–	–	312 (RPD[pS]RLGKTEL; listed as Homo sapiens) [compound 312]
L	–	–	4 (4 indicates >25 copies per cell)	–	–	4 (4 indicates >25 copies per cell)	4 (4 indicates >25 copies per cell)	4 (4 indicates >25 copies per cell)	–	313 (RPF[pS]PREAL; listed as Homo sapiens) [compound 313]
L	–	–	–	–	1 (1 indicates <1 copy/cell)	–	–	–	–	315 (RPI[pT]PPRNSA; listed as Homo sapiens) [compound 315]
L	–	1 (1 indicates <1 copy/cell)	–	–	2 (2 indicates 1-5 copies/cell)	–	–	–	1 (1 indicates <1 copy/cell)	318 (RPKPSS[pS]PV; listed as Homo sapiens) [compound 318]
L	–	3 (3 indicates 6-25 copies per cell)	2 (2 indicates 1-5 copies/cell)	4 (4 indicates >25 copies per cell)	1 (1 indicates <1 copy/cell)	1 (1 indicates <1 copy/cell)	1 (1 indicates <1 copy/cell)	1 (1 indicates <1 copy/cell)	–	319 (RPN[pS]PSPTAL; listed as Homo sapiens) [compound 319]
L	–	–	–	–	1 (1 indicates <1 copy/cell)	–	–	–	–	320 (RPPPPPD[pT]PP; listed as Homo sapiens) [compound 320]
L	–	1 (1 indicates <1 copy/cell)	1 (1 indicates <1 copy/cell)	4 (4 indicates >25 copies per cell)	2 (2 indicates 1-5 copies/cell)	1 (1 indicates <1 copy/cell)	–	2 (2 indicates 1-5 copies/cell)	–	321 (RPP[pS]PGPVL; listed as Homo sapiens) [compound 321]
L	–	1 (1 indicates <1 copy/cell)	–	–	3 (3 indicates 6-25 copies per cell)	1 (1 indicates <1 copy/cell)	2 (2 indicates 1-5 copies/cell)	2 (2 indicates 1-5 copies/cell)	–	322 (RPP[pS]SEFLDL; listed as Homo sapiens) [compound 322]
L	2 (2 indicates 1-5 copies/cell)	4 (4 indicates >25 copies per cell)	4 (4 indicates >25 copies per cell)	4 (4 indicates >25 copies per cell)	4 (4 indicates >25 copies per cell)	4 (4 indicates >25 copies per cell)	2 (2 indicates 1-5 copies/cell)	4 (4 indicates >25 copies per cell)	–	323 (RPQRA[pT]SNVF; listed as Homo sapiens) [compound 323]

The next lines start with the substance.

Substance	L/M (HLA-B*0702)	Copies/cell class, AML1 [1]	Copies/cell class, CLL2 [1]	Copies/cell class, CLL4 [1]	Copies/cell class, JY [1]	Copies/cell class, ALL1 [1]	Copies/cell class, HCL1 [1]	Copies/cell class, B Cell [1]	Copies/cell class, T Cell [1]	Copies/cell class, BM [1]
302 (QPR[pS]PGPDYSL; listed as Homo sapiens) [compound 302]	L	3 (3 indicates 6-25 copies per cell)	–	–	–	–	–	–	–	–
306 (RPAK[pS]MDSL; listed as Homo sapiens) [compound 306]	L	–	2 (2 indicates 1-5 copies/cell)	–	4 (4 indicates >25 copies per cell)	2 (2 indicates 1-5 copies/cell)	1 (1 indicates <1 copy/cell)	2 (2 indicates 1-5 copies/cell)	3 (3 indicates 6-25 copies per cell)	–
307 (RPA[pS]AGAML; listed as Homo sapiens) [compound 307]	L	1 (1 indicates <1 copy/cell)	2 (2 indicates 1-5 copies/cell)	–	4 (4 indicates >25 copies per cell)	4 (4 indicates >25 copies per cell)	2 (2 indicates 1-5 copies/cell)	1 (1 indicates <1 copy/cell)	3 (3 indicates 6-25 copies per cell)	1 (1 indicates <1 copy/cell)
308 (RPA[pS]ARAQPGL; listed as Homo sapiens) [compound 308]	L/M	2 (2 indicates 1-5 copies/cell)	3 (3 indicates 6-25 copies per cell)	2 (2 indicates 1-5 copies/cell)	4 (4 indicates >25 copies per cell)	1 (1 indicates <1 copy/cell)	2 (2 indicates 1-5 copies/cell)	–	–	–
309 (RPA[pS]PAAKL; listed as Homo sapiens) [compound 309]	M	1 (1 indicates <1 copy/cell)	2 (2 indicates 1-5 copies/cell)	1 (1 indicates <1 copy/cell)	4 (4 indicates >25 copies per cell)	2 (2 indicates 1-5 copies/cell)	1 (1 indicates <1 copy/cell)	1 (1 indicates <1 copy/cell)	1 (1 indicates <1 copy/cell)	–
314 (RPH[pS]PEKAF; listed as Homo sapiens) [compound 314]	L	1 (1 indicates <1 copy/cell)	1 (1 indicates <1 copy/cell)	–	3 (3 indicates 6-25 copies per cell)	1 (1 indicates <1 copy/cell)	1 (1 indicates <1 copy/cell)	–	–	–
317 (RPKLS[pS]PAL; listed as Homo sapiens) [compound 317]	L	1 (1 indicates <1 copy/cell)	–	–	–	–	–	–	–	–
324 (RPQRAT[pS]NVF; listed as Homo sapiens) [compound 324]	L	2 (2 indicates 1-5 copies/cell)	–	–	–	–	–	2 (2 indicates 1-5 copies/cell)	3 (3 indicates 6-25 copies per cell)	–
325 (RPRAN[pS]GGVDL; listed as Homo sapiens) [compound 325]	L	2 (2 indicates 1-5 copies/cell)	–	–	–	–	–	–	–	–
327 (RPRPH[pS]APSL; listed as Homo sapiens) [compound 327]	L	2 (2 indicates 1-5 copies/cell)	–	–	–	–	–	–	–	–
